In the RNAGym collection of RNA variant scans (doi:10.7554/elife.80360):

B1: HDV Ribozyme (parent)
chain: GGCCGGCAUGGUCCCAGCCUCCUCGCUGGCGCCGGCUGGGCAACAUUCCGAGGGGACCGUCCCCUCGGUAAUGGCGAAUGGGACCCA

Variants of: B1
Test: self-cleavage, relative activity (ratio to wild type); higher = more cleavage; co-transcriptional

| Variant | self-cleavage |
| --- | --- |
| C15U C85G | 0.831 |
| C15G C86A | 0.712 |
| C15G G80C | 0.88 |
| C15G G80U | 0.73 |
| C15G G80A | 0.635 |
| C15U G17C | 0.0978 |
| C15U G17A | 0.604 |
| C15G C64A | 0.538 |
| C15G C64G | 0.415 |
| A16C U72G | 0.237 |
| A16C U20A | 0 |
| A16C U20C | 0.277 |
| A16G A51G | 0.703 |
| A16G A51U | 0.906 |
| C15U U69A | 1.15 |
| C15U G81C | 0.317 |
| C15G U72C | 0.119 |
| C15G U72G | 0.128 |
| A16C G25A | 0.0405 |
| A16C G25U | 0 |
| C15G U60C | 0.7 |
| C15G U60A | 0.185 |
| A16C G67A | 0.506 |
| C15G G76A | 0.665 |

| Variant | self-cleavage |
| --- | --- |
| C15G G54C | 0.415 |
| C15U C22U | 0.35 |
| C15U C22A | 0.113 |
| C15U A43C | 0.0594 |
| A16C C44U | 0.35 |
| A16C C44G | 0.317 |
| A16C C44A | 0.289 |
| A16C C62A | 0.917 |
| A16C C62U | 0.804 |
| A16C C58U | 1.05 |
| A16C C36G | 0 |
| A16C C36A | 0.135 |
| A16C C36U | 0.578 |
| C15U U72C | 0.598 |
| C15U G35U | 0.252 |
| C15U G73U | 0.269 |
| A16C G73U | 0.128 |
| A16C G73A | 0.504 |
| A16C G73C | 0.217 |
| A16C G55C | 1.01 |
| A16C G55U | 0.425 |
| A16C G68A | 0.649 |
| A16C C66A | 0.718 |
| A16C C66U | 0.982 |

| Variant | self-cleavage |
| --- | --- |
| A16C G28A | 0.0449 |
| A16C G28C | 0.119 |
| C15G G31C | 0.178 |
| C15G G31U | 0.135 |
| A16G C19A | 0.237 |
| A16G C19U | 0.178 |
| A16G C19G | 0.151 |
| C15U C49A | 0.623 |
| A16C G29A | 0.116 |
| A16C U69A | 0.767 |
| A16C U69C | 0.739 |
| A16C U69G | 0.923 |
| A16G | 1.07 |
| A16C | 0.838 |
| A16C G31U | 0 |
| A16C G38A | 0.0504 |
| A16C G38U | 0.287 |
| A16G A43U | 0.623 |
| C15G C85A | 0.748 |
| C15G C58U | 0.482 |
| C15U G29C | 0.0449 |
| C15U C75G | 0.0665 |
| C15U C66G | 0.831 |
| C15U C66U | 1.21 |

| Variant | self-cleavage |
| --- | --- |
| C15G G53U | 0.724 |
| C15G G53C | 0.598 |
| A16C C41A | 0.388 |
| A16C C41G | 0.104 |
| A16C C41U | 0.806 |
| A16C G82C | 0.0755 |
| A16C G74C | 0.185 |
| A16C G74U | 0.415 |
| A16C G74A | 0.0692 |
| A16G C24U | 0.808 |
| A16G C24A | 0.569 |
| C15U U23A | 0.831 |
| C15U U23C | 1.11 |
| C15U U23G | 0.415 |
| A16C A70U | 0.415 |
| A16G A56C | 0.862 |
| A16G A56U | 1.25 |
| C15G G39C | 0.0723 |
| C15G G39A | 0.341 |
| C15U G31A | 0.302 |
| C15U A16U | 1.26 |
| A16C G54C | 0.87 |
| A16C G54U | 0.789 |
| A16C G54A | 0.866 |

| Variant | self-cleavage |
| --- | --- |
| A16C C48G | 0.437 |
| C15U A45U | 0.831 |
| C15U A45G | 0.8 |
| A16G C22U | 0.853 |
| A16C G35A | 0.175 |
| A16C G35C | 0.175 |
| A16C G35U | 0.107 |
| A16C A77U | 0.199 |
| A16C A77C | 0.266 |
| C15U C19A | 0.128 |
| A16C A45G | 1.05 |
| A16C A45C | 0.35 |
| A16C A45U | 0.332 |
| A16C U60G | 0.939 |
| C15G G38A | 0 |
| C15G G38C | 0.0639 |
| C15U C48U | 0.852 |
| C15U C48A | 1.17 |
| C15U C48G | 1.13 |
| C15U C58A | 0.997 |
| C15U G55U | 0.729 |
| C15G G25U | 0.0354 |
| C15G G25C | 0 |
| A16C C86G | 0.653 |

| Variant | self-cleavage |
| --- | --- |
| A16C C86U | 0.739 |
| C15U C26G | 0.867 |
| C15U U65C | 0.674 |
| C15U U65G | 0.914 |
| C15U A42U | 0.322 |
| C15U A42G | 0.246 |
| C15U A42C | 0.161 |
| A16C U79G | 0.692 |
| A16C U46C | 0.511 |
| A16C U46A | 0.262 |
| A16C U46G | 0.332 |
| C15U G53U | 0.767 |
| A16G C61G | 0.962 |
| C15U C84A | 0.81 |
| C15G G34A | 0.237 |
| C15G C75G | 0.192 |
| C15G C75A | 0 |
| A16C C32A | 0.0554 |
| A16C A83C | 0.227 |
| A16C A83U | 0.633 |
| C15G U46G | 0.755 |
| C15G U46C | 0.256 |
| C15G C49A | 0.519 |
| C15G C49G | 0.499 |

| Variant | self-cleavage |
| --- | --- |
| A16G A70U | 0.499 |
| C15G C62A | 0.554 |
| C15G C62G | 0.237 |
| A16C C85U | 0.795 |
| A16C C85A | 0.875 |
| A16C C85G | 0.95 |
| A16G C36U | 0.655 |
| A16G C36G | 0 |
| A16C A51G | 0.475 |
| A16C A51C | 0.612 |
| A16C G50A | 0.525 |
| C15U G52A | 0.863 |
| C15G G52U | 0.684 |
| A16C A71C | 0.492 |
| A16G A77U | 0.266 |
| C15U U20C | 0 |
| C15U U20G | 0.166 |
| C15U U20A | 0.0692 |
| C15U C86A | 1.1 |
| C15U C86U | 0.895 |
| C15U C86G | 0.91 |
| A16C C30U | 0.449 |
| A16C G34C | 0.104 |
